In assay [1] the target is T1, hNrp2 (a1a2b1b2)-Fc fusion protein (human, UniProt O60462 23-595, limits assumed).
T1 construct: domain: a1a2b1b2; Expressed in CHO cells; The SPR text says only 'human Nrp2 (a1a2b1b2)', so it is not certain that the Fc fusion was the analyte there; also called hNrp2 ECD; human Nrp2 ECD; not shown: Fc part of the fusion
T1 sequence (looked up): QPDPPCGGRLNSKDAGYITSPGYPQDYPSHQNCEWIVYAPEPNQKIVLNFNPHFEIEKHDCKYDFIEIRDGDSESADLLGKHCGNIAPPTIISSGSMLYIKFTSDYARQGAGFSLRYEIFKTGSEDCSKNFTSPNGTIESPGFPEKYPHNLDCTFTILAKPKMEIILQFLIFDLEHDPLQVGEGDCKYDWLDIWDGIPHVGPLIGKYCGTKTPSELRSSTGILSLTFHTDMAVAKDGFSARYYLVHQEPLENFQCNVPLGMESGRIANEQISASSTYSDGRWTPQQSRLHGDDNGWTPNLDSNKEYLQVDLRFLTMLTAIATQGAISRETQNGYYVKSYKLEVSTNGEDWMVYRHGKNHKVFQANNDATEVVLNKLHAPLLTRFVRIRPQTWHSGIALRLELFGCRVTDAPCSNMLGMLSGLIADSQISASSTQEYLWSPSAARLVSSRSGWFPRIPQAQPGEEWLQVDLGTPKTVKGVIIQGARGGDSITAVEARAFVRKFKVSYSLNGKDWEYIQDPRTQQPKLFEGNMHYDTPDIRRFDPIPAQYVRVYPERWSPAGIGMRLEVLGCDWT
The assay is described as follows: SPR (BIAcore-3000), human IgG1 captured on anti-human IgG CM5 chip, human Nrp2 (a1a2b1b2) injected 0.5-250 nM, 25 C, 1:1 Langmuir; human Nrp2. The method, then: (§1) To determine binding affinities of anti-Nrp2^B IgG1 antibodies, surface plasmon resonance (SRP) measurement with a BIAcore™-3000 instrument was used. First of all, anti-Nrp2^B human IgGs were captured by CM5 biosensor chips coated rabbit anti-human IgG to achieve approximately 200 response units (RU). For kinetics measurements, two-fold serial dilutions of mouse or human Nrp2 (a1a2b1b2) (0.5 nM to 250 nM) were injected separately in PBT buffer (PBS with 0.05% (v/v) Tween 20) at 25° C. with a flow rate of 30 μl/min. Association rates (kₒₙ) and dissociation rates (koff) were calculated using a simple one-to-one Langmuir binding model (BIAcore Evaluation Software version 3.2). The equilibrium dissociation constant (KD) was calculated as the ratio koff/kₒₙ.
Background: Surface plasmon resonance follows binding to a sensor surface in real time, without labels.

In a further assay the target is T2, mNrp2 (a1a2b1b2)-His (mouse, UniProt O35375 23-595, limits assumed).
T2 construct: domain: a1a2b1b2; Expressed in CHO cells; also called mouse Nrp2 (a1a2b1b2); murine Nrp2; not shown: His tag
T2 sequence (looked up): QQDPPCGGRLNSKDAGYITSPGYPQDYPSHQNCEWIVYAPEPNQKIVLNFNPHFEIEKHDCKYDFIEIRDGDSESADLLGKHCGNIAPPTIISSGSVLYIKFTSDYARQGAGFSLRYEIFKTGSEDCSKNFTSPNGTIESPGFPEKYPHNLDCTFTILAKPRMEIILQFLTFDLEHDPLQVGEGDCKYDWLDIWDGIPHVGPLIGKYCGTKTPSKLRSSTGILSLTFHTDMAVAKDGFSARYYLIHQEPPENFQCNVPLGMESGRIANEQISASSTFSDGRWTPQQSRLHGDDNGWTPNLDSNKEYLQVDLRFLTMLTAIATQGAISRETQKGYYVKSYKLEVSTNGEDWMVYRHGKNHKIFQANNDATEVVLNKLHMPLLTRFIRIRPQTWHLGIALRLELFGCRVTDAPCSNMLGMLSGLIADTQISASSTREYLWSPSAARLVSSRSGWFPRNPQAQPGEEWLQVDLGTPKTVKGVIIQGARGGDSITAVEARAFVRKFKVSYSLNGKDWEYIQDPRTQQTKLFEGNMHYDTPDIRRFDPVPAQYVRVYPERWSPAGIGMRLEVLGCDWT
Description: SPR (BIAcore-3000), human IgG1 captured on anti-human IgG CM5 chip, mouse Nrp2 (a1a2b1b2) injected 0.5-250 nM, 25 C, 1:1 Langmuir; murine Nrp2. The method, then:
as §1

The target of assay [2] is T1, hNrp2 (a1a2b1b2)-Fc fusion protein. Description: competition ELISA: antibody titrated on plate-coated NRP2-Fc (5 ug/ml), competitor biotinylated VEGF165, streptavidin-HRP; blocking of VEGF165 binding. The procedure:
(§2) To evaluate blocking Nrp2 from binding VEGF, three-fold serial dilutions of anti-Nrp2^B IgGs were first incubated with 96-well Maxisorp plate coated NRP2-Fc (5 μg/ml) in PBST buffer for 2 hr, following by adding biotinylated VEGF₁₆₅ or VEGFC (full length) for 15 minutes. The amount of biotinylated VEGF binding to Nrp2 was detected by streptavidin-HRP conjugates.

Another assay deals with T3, hNrp2 (b1b2) (human, UniProt O60462 275-595, limits assumed).
T3 construct: domain: b1b2; Expressed in insect cells; also called B1-B2 domains of hNrp2; b1-b2 domains of human Nrp2
T3 sequence (looked up): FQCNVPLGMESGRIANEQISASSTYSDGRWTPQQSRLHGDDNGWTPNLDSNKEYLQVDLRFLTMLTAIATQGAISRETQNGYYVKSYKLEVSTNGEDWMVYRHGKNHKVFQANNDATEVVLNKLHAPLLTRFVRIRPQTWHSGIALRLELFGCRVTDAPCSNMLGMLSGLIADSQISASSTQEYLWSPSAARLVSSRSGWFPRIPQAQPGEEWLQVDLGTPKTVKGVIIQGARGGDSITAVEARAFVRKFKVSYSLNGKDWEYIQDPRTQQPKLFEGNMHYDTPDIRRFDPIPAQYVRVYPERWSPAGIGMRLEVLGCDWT
The assay is described as follows: ELISA on antigen-coated plate, Anti-Nrp2^B IgG titrated, anti-human HRP detection, OD450. The procedure: (§3) For ELISA-based binding specificity tests, three-fold serial dilutions of Anti-Nrp2^B IgGs (0.002 nM to 500 nM) in PBST buffer (PBT buffer with 0.5% (w/v) BSA) were incubated with 1 μg/ml antigen-coated 96-well Maxisorp plates for at least 1 hr, and the plates were washed with PBT buffer. Bound antibodies were detected with anti-human antibody HRP conjugates diluted 1:2500 in PBST buffer, developed with TMB substrate for approximately 5 minutes, quenched with 1M H₃PO₄, and read spectrophotometrically at 450 nm.
Background: ELISA stands for enzyme-linked immunosorbent assay.

The target in a further assay is T4, A1-A2 domains of hNrp2 (human, UniProt O60462 23-270, limits assumed).
T4 construct: domain: A1-A2; also called CUB (a1-a2) domains of human Nrp2
T4 sequence (looked up): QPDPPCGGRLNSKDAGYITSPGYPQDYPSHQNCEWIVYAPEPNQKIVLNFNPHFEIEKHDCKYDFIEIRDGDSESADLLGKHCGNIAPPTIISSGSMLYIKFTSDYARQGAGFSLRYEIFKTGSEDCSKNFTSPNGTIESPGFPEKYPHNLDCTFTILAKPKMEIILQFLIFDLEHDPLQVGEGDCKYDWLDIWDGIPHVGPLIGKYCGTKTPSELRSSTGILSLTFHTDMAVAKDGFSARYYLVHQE
Described as above. The method, then:
as §3

A further assay has as its target T5, hNrp1 ECD (human, UniProt O14786 22-856).
T5 construct: extracellular domain
T5 sequence (looked up): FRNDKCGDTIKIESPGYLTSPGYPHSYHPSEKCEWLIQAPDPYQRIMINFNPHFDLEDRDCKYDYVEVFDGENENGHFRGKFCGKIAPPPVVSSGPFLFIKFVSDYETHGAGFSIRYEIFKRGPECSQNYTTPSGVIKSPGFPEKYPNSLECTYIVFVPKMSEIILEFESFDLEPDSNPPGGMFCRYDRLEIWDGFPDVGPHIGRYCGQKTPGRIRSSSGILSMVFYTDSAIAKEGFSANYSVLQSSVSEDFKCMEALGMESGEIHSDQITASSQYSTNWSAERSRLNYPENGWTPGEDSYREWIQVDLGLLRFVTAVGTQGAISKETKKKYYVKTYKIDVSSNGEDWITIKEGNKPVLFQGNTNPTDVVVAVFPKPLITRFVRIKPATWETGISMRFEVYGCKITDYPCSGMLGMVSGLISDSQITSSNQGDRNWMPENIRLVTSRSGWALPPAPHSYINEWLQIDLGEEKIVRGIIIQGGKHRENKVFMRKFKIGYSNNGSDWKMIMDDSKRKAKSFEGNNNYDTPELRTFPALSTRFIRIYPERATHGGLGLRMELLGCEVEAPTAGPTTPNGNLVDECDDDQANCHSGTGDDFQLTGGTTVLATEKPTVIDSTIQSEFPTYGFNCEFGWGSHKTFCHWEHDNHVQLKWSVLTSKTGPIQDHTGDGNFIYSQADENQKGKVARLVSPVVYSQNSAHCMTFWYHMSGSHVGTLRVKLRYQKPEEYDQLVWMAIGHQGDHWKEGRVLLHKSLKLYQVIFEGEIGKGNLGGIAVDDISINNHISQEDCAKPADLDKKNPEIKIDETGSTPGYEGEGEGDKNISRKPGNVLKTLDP
The assay is described as above. The procedure: as §3

Assay [3] has as its target T1, hNrp2 (a1a2b1b2)-Fc fusion protein. Described as above. The method, then: as §3
The target is the same in assay [4]. Description: blocking ELISA: plate coated with human Nrp2 ECD (5 ug/ml), antibody pre-incubated, then biotinylated human VEGFC (1 nM), streptavidin-HRP; blocked ligand VEGFC. The procedure: FIG. 1. Characterization of Anti-Nrp2^B mAb. (A) Schematic representation of Sema and VEGF binding regions on Nrp2 relative to Anti-Nrp2^B epitope regions. […] (C) Blocking of VEGFC binding to Nrp2 by Anti-Nrp2^B. Increasing amounts of mAb was pre-incubated with plates coated with human Nrp2 ECD (5 μg/ml) for 1-2 hrs, followed by adding pre-titrated biotinylated human VEGFC (1 nM) for 15 min. The percentage of bound VEGFC was detected by streptavidin-HRP conjugates. (D) Blocking of VEGF₁₆₅ binding to Nrp2 by Anti-Nrp2^B. (E) Blocking of Sema3F binding to LECs. LEC were incubated with conditioned media containing Sema3F fused to alkaline phosphatase (AP) (REF), in the presence or absence of Anti-Nrp2^B. AP activity derived form bound Sema3F-AP was detected colorimetrically with same development times. […] Nrp2 ECD was used as a positive control for blocking binding (right panel). Scale bar
as §2

B1: anti-Nrp2^B antibody YW68.4.2.36 (antibody, V domains shown)
VH: EVQLVESGGGLVQPGGSLRLSCAASGFTITSSGIHWVRQAPGKGLEWVARITPYDGSTDYADSVKGRFTISADTSKNTAYLQMNSLRAEDTAVYYCARYRGRLLFDYWGQGTLVTVSS
VL: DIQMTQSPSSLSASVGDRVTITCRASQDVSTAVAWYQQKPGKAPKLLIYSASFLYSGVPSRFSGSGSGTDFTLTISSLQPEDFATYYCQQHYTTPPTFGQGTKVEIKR
notes: Phage-derived human synthetic antibody; Human IgG1 was used in SPR and ELISA; also called Anti-Nrp2^B mAb; anti-Nrp2^B IgG1
For the molecule B1, the results for the Kd (in assay [1]; in the assay with mNrp2 (a1a2b1b2)-His) were 5.3 nM and 4.9 nM, respectively. The IC50 (as a rule, the midpoint of a concentration-inhibition curve) in assay [2] was 0.1 nM. The concentration giving a half-maximal response (EC50 (read off the curve)) (commonly the concentration that produces a half-maximal response) with hNrp2 (b1b2) is about 0.3 nM; in assay [3] it was about 0.2 nM. In addition, the binding result with A1-A2 domains of hNrp2 and with hNrp1 ECD was “no binding (tested: 500 nM)” in each case. In addition, in assay [4], the “IC50 (read off the curve)” value is about 0.1 nM.

(Values after patent US20140234312A1 (Genentech, published 2014).)
